US20250326839A1 (VIGIL NEUROSCIENCE, published 2025)

T1: human TREM2 (human, UniProt Q9NZC2 19-174, limits assumed)
T1 construct: also called triggering receptor expressed on myeloid cells 2
T1 sequence: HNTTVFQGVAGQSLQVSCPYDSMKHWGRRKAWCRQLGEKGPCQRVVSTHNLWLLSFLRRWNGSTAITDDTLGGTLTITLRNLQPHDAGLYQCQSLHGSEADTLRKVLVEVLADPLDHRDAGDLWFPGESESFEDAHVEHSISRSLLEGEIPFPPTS


Key:
human TREM2 [1] = biological target: T1, human TREM2; test: 2nd screen, 2 nM
human TREM2 [2] = biological target: T1, human TREM2; test: 1st screen, 10 nM Ab
human TREM2 [3] = biological target: T1, human TREM2; test: 2nd screen, 10 nM

| Binder | Binding Signal (human TREM2 [1]) | Binding Signal (human TREM2 [2]) | Binding Signal (human TREM2 [3]) |
| --- | --- | --- | --- |
| V49 (antibody, V domains shown, also called 6E7 variant V49; LV-106/HV-106) VH: EVQLVQSGAEVKKPGESLKISCKGSGYSFNSYWIAWVRQMPGKGLEWMGTIYPGDSDTRLSPSFQGQVTISADKSISTAYLQWSSLKASDTAMYFCARSRTFYYDSSDYFDYWGQGTLVTVSS VL: DIQMTQSPSSVSASVGDRVTITCRASQGISSWLAWYQQKPGKAPKLLIYAASSRQNGVPSRFSGSGSGTDFTLTISSLQPEDFATYFCQQADSYPRTFGQGTKLEIK | 5.02 fold over 6E7 parental antibody | 6.51 fold over 6E7 parental antibody | 6.58 fold over 6E7 parental antibody |
| V63 (antibody, V domains shown, also called 6E7 variant V63) VH: EVQLVQSGAEVKKPGESLKISCKGSGYSFRSYWIAWVRQMPGKGLEWMGIIYPGDSDTRYSPSFQGQVTISADKSISTAYLQWSSLKASDTAMYFCARSRTFYYDSSDYFDYWGQGTLVTVSS VL: DIQMTQSPSSVSASVGDRVTITCRASQGISSWLAWYQQKPGKAPKLLIYAASSLQRGVPSRFSGSGSGTDFTLTISSLQPEDFATYFCQQADRFPRTFGQGTKLEIK | 4.91 fold over 6E7 parental antibody | 3.76 fold over 6E7 parental antibody | 3.71 fold over 6E7 parental antibody |
| V52 (antibody, V domains shown, also called 6E7 variant V52; LV-107/HV-107) VH: EVQLVQSGAEVKKPGESLKISCKGSGYSFESYWIAWVRQMPGKGLEWMGIIYPGDSDTRYSPSFQGQVTISADKSISTAYLQWSSLKASDTAMYFCARGRTFYYDSSDYFDYWGQGTLVTVSS VL: DIQMTQSPSSVSASVGDRVTITCRASQGISSWLAWYQQKPGKAPKLLIYAASSLQRGVPSRFSGSGSGTDFTLTISSLQPEDFATYFCQQADRFPRTFGQGTKLEIK | 1.78 fold over 6E7 parental antibody | 3 fold over 6E7 parental antibody | 3.09 fold over 6E7 parental antibody |
| V51 (antibody, V domains shown, also called 6E7 variant V51) VH: EVQLVQSGAEVKKPGESLKISCKGSGYSFTSYWIAWVRQMPGKGLEWMGIIYPGDSDVRYSPSFQGQVTISADKSISTAYLQWSSLKASDTAMYFCARGRTFYYDSSDYFDNWGQGTLVTVSS VL: DIQMTQSPSSVSASVGDRVTITCRASQGISSWLAWYQQKPGKAPKLLIYAASSRQNGVPSRFSGSGSGTDFTLTISSLQPEDFATYFCQQADSFPRTFGQGTKLEIK | 1.83 fold over 6E7 parental antibody | 2.81 fold over 6E7 parental antibody | 3.18 fold over 6E7 parental antibody |
| V72 (antibody, V domains shown, also called 6E7 variant V72) VH: EVQLVQSGAEVKKPGESLKISCKGSGYSFTSYWIGWVRQMPGKGLEWMGIIYPGDSDTRYSPSFQGQVTISADKSISTAYLQWSSLKASDTAMYFCARGRTFYYDSSDYFDYWGQGTLVTVSS VL: DIQMTQSPSSVSASVGDRVTITCRASQGISSWLAWYQQKPGKAPKLLIYAASSLVNGVPSRFSGSGSGTDFTLTISSLQPEDFATYFCQQADSYPRTFGQGTKLEIK | 2.5 fold over 6E7 parental antibody | 3.64 fold over 6E7 parental antibody | 4.01 fold over 6E7 parental antibody |
| V62 (antibody, V domains shown, also called 6E7 variant V62) VH: EVQLVQSGAEVKKPGESLKISCKGSGYSFGSYWIAWVRQMPGKGLEWMGIIYPGDSDTRYAPSFQGQVTISADKSISTAYLQWSSLKASDTAMYFCARQRTFYYDSSGYFDYWGQGTLVTVSS VL: DIQMTQSPSSVSASVGDRVTITCRASQGISSWLAWYQQKPGKAPKLLIYAASSLQRGVPSRFSGSGSGTDFTLTISSLQPEDFATYFCGQADSFPRTFGQGTKLEIK | 1.87 fold over 6E7 parental antibody | 2.49 fold over 6E7 parental antibody | 2.89 fold over 6E7 parental antibody |
| V65 (antibody, V domains shown, also called 6E7 variant V65) VH: EVQLVQSGAEVKKPGESLKISCKGSGYSFTSYWIAWVRQMPGKGLEWMGIIYPGDSDTRYSPSFQGQVTISADKSISTAYLQWSSLKASDTAMYFCARSRTFYYDSSDYFDYWGQGTLVTVSS VL: DIQMTQSPSSVSASVGDRVTITCRASQGISSWLAWYQQKPGKAPKLLIYAASSLQNGVPSRFSGSGSGTDFTLTISSLQPEDFATYFCQQADSFPRTFGQGTKLEIK | 1.29 fold over 6E7 parental antibody | 2.05 fold over 6E7 parental antibody | 2.75 fold over 6E7 parental antibody |
| V73 (antibody, V domains shown, also called 6E7 variant V73; LV-106/HV-109) VH: EVQLVQSGAEVKKPGESLKISCKGSGYSFGSYWIAWVRQMPGKGLEWMGIIYPGDSDTRYSPGFQGQVTISADKSISTAYLQWSSLKASDTAMYFCARGRTFYYDSSDYFDYWGQGTLVTVSS VL: DIQMTQSPSSVSASVGDRVTITCRASQGISSWLAWYQQKPGKAPKLLIYAASSRQNGVPSRFSGSGSGTDFTLTISSLQPEDFATYFCQQADSYPRTFGQGTKLEIK | 4.17 fold over 6E7 parental antibody | 5.12 fold over 6E7 parental antibody | 5.44 fold over 6E7 parental antibody |
| V60 (antibody, V domains shown, also called 6E7 variant V60; LV-108/HV-108) VH: EVQLVQSGAEVKKPGESLKISCKGSGYHFTSYWIAWVRQMPGKGLEWMGIIYPGDSDVRYSPSFQGQVTISADKSISTAYLQWSSLKASDTAMYFCARQRTFYYDSSDYSDYWGQGTLVTVSS VL: DIQMTQSPSSVSASVGDRVTITCRASQGISSWLAWYQQKPGKAPKLLIYAASSLQRGVPSRFSGSGSGTDFTLTISSLQPEDFATYFCGQADSFPRTFGQGTKLEIK | 3.35 fold over 6E7 parental antibody | 3.26 fold over 6E7 parental antibody | 3.63 fold over 6E7 parental antibody |
| V64 (antibody, V domains shown, also called 6E7 variant V64) VH: EVQLVQSGAEVKKPGESLKISCKGSGYSFQSYWIAWVRQMPGKGLEWMGIIYPGDSDTRYSPSFQGQVTISADKSISTAYLQWSSLKASDTAMYFCARGRTFYYDSSDYFDYWGQGTLVTVSS VL: DIQMTQSPSSVSASVGDRVTITCRASQGISSWLAWYQQKPGKAPKLLIYAASSLANGVPSRFSGSGSGTDFTLTISSLQPEDFATYFCQQADSYPRTFGQGTKLEIK | 4.88 fold over 6E7 parental antibody | 5.41 fold over 6E7 parental antibody | 5.48 fold over 6E7 parental antibody |
| V61 (antibody, V domains shown, also called 6E7 variant V61) VH: EVQLVQSGAEVKKPGESLKISCKGSGYSFSSYWIAWVRQMPGKGLEWMGIIYPGDSDTRYNPSFQGQVTISADKSISTAYLQWSSLKASDTAMYFCARGRTFYYDSSDYFDYWGQGTLVTVSS VL: DIQMTQSPSSVSASVGDRVTITCRASQGISSWLAWYQQKPGKAPKLLIYAASSLVNGVPSRFSGSGSGTDFTLTISSLQPEDFATYFCQQADSLPRTFGQGTKLEIK | 3.63 fold over 6E7 parental antibody | 5.08 fold over 6E7 parental antibody | 5.22 fold over 6E7 parental antibody |
| V50 (antibody, V domains shown, also called 6E7 variant V50) VH: EVQLVQSGAEVKKPGESLKISCKGSGYSFGSYWIAWVRQMPGKGLEWMGVIYPGDSDTRYSPSFQGQVTISADKSISTAYLQWSSLKASDTAMYFCARQRTFYYDSSDYLDYWGQGTLVTVSS VL: DIQMTQSPSSVSASVGDRVTITCRASQGISSWLAWYQQKPGKAPKLLIYAASSRQNGVPSRFSGSGSGTDFTLTISSLQPEDFATYFCQQADSLPRTFGQGTKLEIK | 3.39 fold over 6E7 parental antibody | 4.1 fold over 6E7 parental antibody | 4.16 fold over 6E7 parental antibody |
| V53 (antibody, V domains shown, also called 6E7 variant V53) VH: EVQLVQSGAEVKKPGESLKISCKGSGYSFTSYWIAWVRQMPGKGLEWMGIIYPGDSDTRYSPHFQGQVTISADKSISTAYLQWSSLKASDTAMYFCARQRTFYYDSSDYFDYWGQGTLVTVSS VL: DIQMTQSPSSVSASVGDRVTITCRASQGISSWLAWYQQKPGKAPKLLIYAASSLQNGVPSRFSGSGSGTDFTLTISSLQPEDFATYFCQQADSFPRTFGQGTKLEIK | 0.66 fold over 6E7 parental antibody | 1.25 fold over 6E7 parental antibody | 1.17 fold over 6E7 parental antibody |
